Assay results as given in article PMC12148503, “Molecular Basis of Interchain Disulfide Bond Formation in BMP-9 and BMP-10” (Journal of molecular biology, 2025).

B1: Pro-(X)-BMP-9 G389S, K357R (natural protein, human, UniProt Q9UK05 23-429, looked up)
chain: KPLQSWGRGSAGGNAHSPLGVPGGGLPEHTFNLKMFLENVKVDFLRSLNLSGVPSQDKTRVEPPQYMIDLYNRYTSDKSTTPASNIVRSFSMEDAISITATEDFPFQKHILLFNISIPRHEQITRAELRLYVSCQNHVDPSHDLKGSVVIYDVLDGTDAWDSATETKTFLVSQDIQDEGWETLEVSSAVKRWVRSDSTKSKNKLEVTVESHRKGCDTLDISVPPGSRNLPFFVVFSNDHSSGTKETRLELREMISHEQESVLKKLSKDGSTEAGESSHEEDTDGHVAAGSTLAIEGRSSGAGSHCQKTSLRVNFEDIGWDSWIIAPKEYEAYECRGGCFFPLADDVTPTKHAIVQTLVHLKFPTKVSKACCVPTKLSPISVLYKDDMGVPTLKYHYEGMSVAECGCR
notes: Human proBMP9 residues 23-429; mutant based on Pro-(X)-BMP-9; also called G389S, K357R BMP-9; BMP-9 double mutant; source: expi293 (suspension HEK293), secreted; purified from conditioned medium by IMAC; not shown: 8xHis, N-terminal, kept
B2: Pro-(X)-BMP-9 K357R (natural protein, human, UniProt Q9UK05 23-429, looked up)
chain: KPLQSWGRGSAGGNAHSPLGVPGGGLPEHTFNLKMFLENVKVDFLRSLNLSGVPSQDKTRVEPPQYMIDLYNRYTSDKSTTPASNIVRSFSMEDAISITATEDFPFQKHILLFNISIPRHEQITRAELRLYVSCQNHVDPSHDLKGSVVIYDVLDGTDAWDSATETKTFLVSQDIQDEGWETLEVSSAVKRWVRSDSTKSKNKLEVTVESHRKGCDTLDISVPPGSRNLPFFVVFSNDHSSGTKETRLELREMISHEQESVLKKLSKDGSTEAGESSHEEDTDGHVAAGSTLAIEGRSSGAGSHCQKTSLRVNFEDIGWDSWIIAPKEYEAYECRGGCFFPLADDVTPTKHAIVQTLVHLKFPTKVGKACCVPTKLSPISVLYKDDMGVPTLKYHYEGMSVAECGCR
notes: Human proBMP9 residues 23-429; mutant based on Pro-(X)-BMP-9; also called K357R BMP-9; source: expi293 (suspension HEK293), secreted; purified from conditioned medium by IMAC; not shown: 8xHis, N-terminal, kept
B3: Pro-(X)-BMP-9 (natural protein, human, UniProt Q9UK05 23-429, looked up)
chain: KPLQSWGRGSAGGNAHSPLGVPGGGLPEHTFNLKMFLENVKVDFLRSLNLSGVPSQDKTRVEPPQYMIDLYNRYTSDKSTTPASNIVRSFSMEDAISITATEDFPFQKHILLFNISIPRHEQITRAELRLYVSCQNHVDPSHDLKGSVVIYDVLDGTDAWDSATETKTFLVSQDIQDEGWETLEVSSAVKRWVRSDSTKSKNKLEVTVESHRKGCDTLDISVPPGSRNLPFFVVFSNDHSSGTKETRLELREMISHEQESVLKKLSKDGSTEAGESSHEEDTDGHVAAGSTLAIEGRSSGAGSHCQKTSLRVNFEDIGWDSWIIAPKEYEAYECKGGCFFPLADDVTPTKHAIVQTLVHLKFPTKVGKACCVPTKLSPISVLYKDDMGVPTLKYHYEGMSVAECGCR
notes: Human proBMP9 residues 23-429; Behind the rat serum albumin signal peptide, the 8xHis tag and a factor Xa site (IEGR); Secreted unprocessed as a mixture of disulfide-linked dimers and monomers; also called Pro-BMP-9 with the furin site replaced by a factor X site; Pro-BMP-9 wild-type; source: expi293 (suspension HEK293), secreted; purified from conditioned medium by IMAC; not shown: 8xHis, …
B4: Pro-(X)-BMP-9 G389S (natural protein, human, UniProt Q9UK05 23-429, looked up)
chain: KPLQSWGRGSAGGNAHSPLGVPGGGLPEHTFNLKMFLENVKVDFLRSLNLSGVPSQDKTRVEPPQYMIDLYNRYTSDKSTTPASNIVRSFSMEDAISITATEDFPFQKHILLFNISIPRHEQITRAELRLYVSCQNHVDPSHDLKGSVVIYDVLDGTDAWDSATETKTFLVSQDIQDEGWETLEVSSAVKRWVRSDSTKSKNKLEVTVESHRKGCDTLDISVPPGSRNLPFFVVFSNDHSSGTKETRLELREMISHEQESVLKKLSKDGSTEAGESSHEEDTDGHVAAGSTLAIEGRSSGAGSHCQKTSLRVNFEDIGWDSWIIAPKEYEAYECKGGCFFPLADDVTPTKHAIVQTLVHLKFPTKVSKACCVPTKLSPISVLYKDDMGVPTLKYHYEGMSVAECGCR
notes: Human proBMP9 residues 23-429; mutant based on Pro-(X)-BMP-9; also called G389S BMP-9; source: expi293 (suspension HEK293), secreted; purified from conditioned medium by IMAC; not shown: 8xHis, N-terminal, kept
B5: Pro-(fr)-BMP-10 (natural protein, human, UniProt O95393 22-424, looked up)
chain: SPIMNLEQSPLEEDMSLFGDVFSEQDGVDFNTLLQSMKDEFLKTLNLSDIPTQDSAKVDPPEYMLELYNKFATDRTSMPSANIIRSFKNEDLFSQPVSFNGLRKYPLLFNVSIPHHEEVIMAELRLYTLVQRDRMIYDGVDRKITIFEVLESKGDNEGERNMLVLVSGEIYGTNSEWETFDVTDAIRRWQKSGSSTHQLEVHIESKHDEAEDASSGRLEIDTSAQNKHNPLLIVFSDDQSSDKERKEELNEMISHEQLPELDNLGLDSFSSGPGEEALLQMRSNIIYDSTARIRRNAKGNYCKRTPLYIDFKEIGWDSWIIAPPGYEAYECRGVCNYPLAEHLTPTKHAIIQALVHLKNSQKASKACCVPTKLEPISILYLDKGVVTYKFKYEGMAVSECGCR
notes: Human proBMP10 residues 22-424 with the natural furin site; Partially processed by furin: the sample holds unprocessed pro-protein, prodomain and growth factor (12 and 24 kDa); also called Pro-BMP-10 with unmodified furin processing site; wild-type BMP-10; source: expi293 (suspension HEK293), secreted; purified from conditioned medium by IMAC; not shown: 8xHis, N-terminal, kept
B6: Pro-(fr)-Act-A (natural protein, human, UniProt P08476 27-426, looked up)
chain: EGHSAAPDCPSCALAALPKDVPNSQPEMVEAVKKHILNMLHLKKRPDVTQPVPKAALLNAIRKLHVGKVGENGYVEIEDDIGRRAEMNELMEQTSEIITFAESGTARKTLHFEISKEGSDLSVVERAEVWLFLKVPKANRTRTKVTIRLFQQQKHPQGSLDTGEEAEEVGLKGERSELLLSEKVVDARKSTWHVFPVSSSIQRLLDQGKSSLDVRIACEQCQESGASLVLLGKKKKKEEEGEGKKKGGGEGGAGADEEKEQSHRPFLMLQARQSEDHPHRRRRRGLECDGKVNICCKKQFFVSFKDIGWNDWIIAPSGYHANYCEGECPSHIAGTSGSSLSFHSTVINHYRMRGHSPFANLKSCCVPTKLRPMSMLYYDDGQNIIKKDIQNMIVEECGCS
notes: Human proINHBA residues 27-426; The results call it N-terminally histidine-tagged and purified by that tag; the methods say 'with no tag or processing site'; Furin processing incomplete; also called Pro-Activin-A; Pro-Act-A; source: expi293 (suspension HEK293), secreted; purified from conditioned medium by the histidine tag (IMAC); not shown: His tag, N-terminal, kept

Target: the molecule itself
Experiment: non-reducing SDS-PAGE with densitometry; IMAC-purified pro-proteins from expi293 conditioned medium, non-reduced against reduced; bands of disulfide-linked dimer and monomer

Binding result, binds:
B1, B2, B3, B4, B5, B6
